Patent publication US20260001928A1 (CORTERIA PHARMACEUTICALS, priority 2022, published 2026)
*1 amine or outer side, *2 acyl side, *3 side chain or, on linkers, in order; H or OH if unused. Side-chain parts run from the residue outwards. [ ]: non-standard residue; d: D form. The star is where a group is joined. C18 diacid = O=C(O)CCCCCCCCCCCCCCCCC(=O)*; C16 diacid = O=C(O)CCCCCCCCCCCCCCC(=O)*; γGlu = O=C(O)[C@H](CCC(=O)[*:2])N[*:1]; Ac5c = NC1(C(=O)O)CCCC1

B1: SEQ ID NO 60 (peptide)
peptide: Ac-IVLSLD[dV]PIKLK([γGlu-C16 diacid])KILLEQEKQKKQREQAETN[Ac5c]QILAQV-NH2
SMILES: CC[C@H](C)[C@H](NC(C)=O)C(=O)N[C@H](C(=O)N[C@@H](CC(C)C)C(=O)N[C@@H](CO)C(=O)N[C@@H](CC(C)C)C(=O)N[C@@H](CC(=O)O)C(=O)N[C@@H](C(=O)N1CCC[C@H]1C(=O)N[C@H](C(=O)N[C@@H](CCCCN)C(=O)N[C@@H](CC(C)C)C(=O)N[C@@H](CCCCNC(=O)CC[C@H](NC(=O)CCCCCCCCCCCCCCC(=O)O)C(=O)O)C(=O)N[C@@H](CCCCN)C(=O)N[C@H](C(=O)N[C@@H](CC(C)C)C(=O)N[C@@H](CC(C)C)C(=O)N[C@@H](CCC(=O)O)C(=O)N[C@@H](CCC(N)=O)C(=O)N[C@@H](CCC(=O)O)C(=O)N[C@@H](CCCCN)C(=O)N[C@@H](CCC(N)=O)C(=O)N[C@@H](CCCCN)C(=O)N[C@@H](CCCCN)C(=O)N[C@@H](CCC(N)=O)C(=O)N[C@@H](CCCNC(=N)N)C(=O)N[C@@H](CCC(=O)O)C(=O)N[C@@H](CCC(N)=O)C(=O)N[C@@H](C)C(=O)N[C@@H](CCC(=O)O)C(=O)N[C@H](C(=O)N[C@@H](CC(N)=O)C(=O)NC1(C(=O)N[C@@H](CCC(N)=O)C(=O)N[C@H](C(=O)N[C@@H](CC(C)C)C(=O)N[C@@H](C)C(=O)N[C@@H](CCC(N)=O)C(=O)N[C@H](C(N)=O)C(C)C)[C@@H](C)CC)CCCC1)[C@@H](C)O)[C@@H](C)CC)[C@@H](C)CC)C(C)C)C(C)C
B2: SEQ ID NO 135 (peptide)
peptide: Ac-IVLSLD[dV]PIKLK([γGlu-C18 diacid])KILLEQEKQKKQREQAETN[Ac5c]QILAQV-NH2
SMILES: CC[C@H](C)[C@H](NC(C)=O)C(=O)N[C@H](C(=O)N[C@@H](CC(C)C)C(=O)N[C@@H](CO)C(=O)N[C@@H](CC(C)C)C(=O)N[C@@H](CC(=O)O)C(=O)N[C@@H](C(=O)N1CCC[C@H]1C(=O)N[C@H](C(=O)N[C@@H](CCCCN)C(=O)N[C@@H](CC(C)C)C(=O)N[C@@H](CCCCNC(=O)CC[C@H](NC(=O)CCCCCCCCCCCCCCCCC(=O)O)C(=O)O)C(=O)N[C@@H](CCCCN)C(=O)N[C@H](C(=O)N[C@@H](CC(C)C)C(=O)N[C@@H](CC(C)C)C(=O)N[C@@H](CCC(=O)O)C(=O)N[C@@H](CCC(N)=O)C(=O)N[C@@H](CCC(=O)O)C(=O)N[C@@H](CCCCN)C(=O)N[C@@H](CCC(N)=O)C(=O)N[C@@H](CCCCN)C(=O)N[C@@H](CCCCN)C(=O)N[C@@H](CCC(N)=O)C(=O)N[C@@H](CCCNC(=N)N)C(=O)N[C@@H](CCC(=O)O)C(=O)N[C@@H](CCC(N)=O)C(=O)N[C@@H](C)C(=O)N[C@@H](CCC(=O)O)C(=O)N[C@H](C(=O)N[C@@H](CC(N)=O)C(=O)NC1(C(=O)N[C@@H](CCC(N)=O)C(=O)N[C@H](C(=O)N[C@@H](CC(C)C)C(=O)N[C@@H](C)C(=O)N[C@@H](CCC(N)=O)C(=O)N[C@H](C(N)=O)C(C)C)[C@@H](C)CC)CCCC1)[C@@H](C)O)[C@@H](C)CC)[C@@H](C)CC)C(C)C)C(C)C

Assays:
[1] = target: T1, CRF1R receptor (UniProt P34998 24-415, limits assumed); test: cell-based or functional assay
T1 sequence (looked up): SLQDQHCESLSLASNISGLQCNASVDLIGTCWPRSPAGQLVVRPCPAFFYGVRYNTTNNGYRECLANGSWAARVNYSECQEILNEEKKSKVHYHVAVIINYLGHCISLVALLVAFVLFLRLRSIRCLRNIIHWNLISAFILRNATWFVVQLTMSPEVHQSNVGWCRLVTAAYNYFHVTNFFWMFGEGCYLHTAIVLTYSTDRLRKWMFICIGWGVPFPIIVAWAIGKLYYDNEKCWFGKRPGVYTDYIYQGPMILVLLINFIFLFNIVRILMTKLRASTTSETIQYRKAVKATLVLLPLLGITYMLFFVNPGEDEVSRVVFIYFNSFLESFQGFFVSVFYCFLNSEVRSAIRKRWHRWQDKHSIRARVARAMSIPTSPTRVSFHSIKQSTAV

[2] = target: human corticotropin-releasing factor 2a (CRF2a receptor) (human), Q13324; test: cell-based or functional assay
Sequence of human corticotropin-releasing factor 2a (CRF2a receptor) (human), Q13324 (Q13324 20-411): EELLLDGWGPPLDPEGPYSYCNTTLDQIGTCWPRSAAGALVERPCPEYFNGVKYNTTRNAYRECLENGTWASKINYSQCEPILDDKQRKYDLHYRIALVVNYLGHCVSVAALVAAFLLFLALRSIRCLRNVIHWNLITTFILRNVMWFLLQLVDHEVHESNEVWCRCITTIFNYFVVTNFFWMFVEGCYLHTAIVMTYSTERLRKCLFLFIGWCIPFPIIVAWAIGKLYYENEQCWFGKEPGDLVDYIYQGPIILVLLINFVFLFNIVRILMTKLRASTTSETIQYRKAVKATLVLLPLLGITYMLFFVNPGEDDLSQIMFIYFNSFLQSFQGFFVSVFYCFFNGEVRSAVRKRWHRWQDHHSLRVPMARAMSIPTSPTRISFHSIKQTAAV

Emax (% I) [1] | EC50 [nM] (cAMP) [2] | Binder
5% | 0.34 nM | B1
15% | 0.19 nM | B2
